The results in this text go back to patent publication US20160310424A1 (Stanford University, published 2016).

Assay [1] addresses T1, low-density lipoprotein receptor-related protein 6 (LRP6) (UniProt O75581 20-1370, limits assumed).
T1 sequence (looked up): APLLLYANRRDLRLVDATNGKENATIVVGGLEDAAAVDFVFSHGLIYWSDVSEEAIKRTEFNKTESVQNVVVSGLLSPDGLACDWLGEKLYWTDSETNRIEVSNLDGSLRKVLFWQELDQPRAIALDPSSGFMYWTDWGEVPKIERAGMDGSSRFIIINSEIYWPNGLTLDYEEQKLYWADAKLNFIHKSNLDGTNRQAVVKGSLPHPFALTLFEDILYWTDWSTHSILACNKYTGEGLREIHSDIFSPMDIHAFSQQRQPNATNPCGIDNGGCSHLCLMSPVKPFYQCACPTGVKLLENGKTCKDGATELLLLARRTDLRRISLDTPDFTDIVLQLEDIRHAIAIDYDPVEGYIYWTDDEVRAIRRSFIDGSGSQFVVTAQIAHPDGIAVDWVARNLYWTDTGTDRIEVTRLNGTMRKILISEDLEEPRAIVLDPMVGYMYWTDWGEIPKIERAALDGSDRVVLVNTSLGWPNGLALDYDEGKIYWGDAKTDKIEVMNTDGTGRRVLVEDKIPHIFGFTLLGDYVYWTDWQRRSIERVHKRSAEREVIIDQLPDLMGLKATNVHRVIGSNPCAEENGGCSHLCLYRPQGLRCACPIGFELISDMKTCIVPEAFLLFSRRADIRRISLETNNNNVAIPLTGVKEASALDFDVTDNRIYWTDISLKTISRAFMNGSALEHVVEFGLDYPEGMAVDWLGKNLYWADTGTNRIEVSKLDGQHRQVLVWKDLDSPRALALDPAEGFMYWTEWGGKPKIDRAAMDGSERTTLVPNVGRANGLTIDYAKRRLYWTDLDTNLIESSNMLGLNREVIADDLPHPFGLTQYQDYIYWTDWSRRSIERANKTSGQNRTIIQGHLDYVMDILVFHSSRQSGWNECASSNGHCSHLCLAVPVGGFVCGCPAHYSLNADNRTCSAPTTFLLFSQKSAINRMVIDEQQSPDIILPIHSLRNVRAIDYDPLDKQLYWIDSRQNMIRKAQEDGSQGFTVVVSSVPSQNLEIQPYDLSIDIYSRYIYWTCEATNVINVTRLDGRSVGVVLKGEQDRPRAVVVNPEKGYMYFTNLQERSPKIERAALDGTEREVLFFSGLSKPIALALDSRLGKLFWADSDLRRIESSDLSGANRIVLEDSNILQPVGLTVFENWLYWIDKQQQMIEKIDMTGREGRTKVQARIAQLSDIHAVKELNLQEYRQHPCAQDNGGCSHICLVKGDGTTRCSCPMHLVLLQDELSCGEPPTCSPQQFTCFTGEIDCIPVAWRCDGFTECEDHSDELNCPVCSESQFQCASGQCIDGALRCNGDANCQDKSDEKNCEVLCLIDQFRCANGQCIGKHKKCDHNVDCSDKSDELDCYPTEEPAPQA
In words: binding affinity stated in the FIG. 17 legend on the pull-down assays; method behind the value not described.

The next assay concerns the target T2, Frizzled.
T2 construct: also called Fz; Frizzled, the WNT receptor
In words: binding affinity stated with the liposome/Frizzled pull-down competition assay; method behind the value not described.

B1: Human Wnt3a polypeptide (ligand)
chain: SYPIWWSLAVGPQYSSLGSQPILCASIPGLVPKQLRFCRNYVEIMPSVAEGIKIGIQECQHQFRGRRWNCTTVHDSLAIFGPVLDKATRESAFVHAIASAGVAFAVTRSCAEGTAAICGCSSRHQGSPGKGWKWGGCSEDIEFGGMVSREFADARENRPDARSAMNRHNNEAGRQAIASHMHLKCKCHGLSGSCEVKTCWWSQPDFRAIGDFLKDKYDSASEMVVEKHRESRGWVETLRPRYTYFKVPTERDLVYYEASPNFCEPNPETGSFGTRDRTCNVSSHGIDGCDLLCCGRGHNARAERRREKCRCVFHWCCYVSCQECTRVYDVHTCK
modifications: palmitoylated at S209 (paragraph 228 instead reports palmitoylation at S211 and probable myristoleylation at S139 and S181); glycosylated
notes: Secreted from CHO cells and purified on blue Sepharose; In the pull-down assays it was reconstituted into DMPC:cholesterol liposomes (L-Wnt3a); also called L-Wnt3a; L-WNT3A
For B1, the figures for the Kd (in assay [1]; with Frizzled) were about 9 nM and about 3.6 nM, respectively.
